Experimental findings from patent US20250011422A1 (UNIVERSITY OF FLORIDA RESEARCH FOUNDATION, published 2025) are described below.

What is called koff is the rate constant with which the complex falls apart. Broadly, the kon is the second-order rate constant of association. By EC50 (read off the curve) is commonly meant the concentration giving half of the maximal effect.

Like-named read-outs stand apart in the source and are kept apart here.

The target in one experiment is T1, Siglec-6 VC28-235-His6 (human, UniProt O43699 28-235).
T1 construct: It was deglycosylated with PNGase F for HDX-MS; also called soluble Siglec-6 (aa 28-235-His6); Siglec-6 ectodomain fragment
T1 sequence (O43699 other isoform, or with tags, fused parts or gaps limits assumed): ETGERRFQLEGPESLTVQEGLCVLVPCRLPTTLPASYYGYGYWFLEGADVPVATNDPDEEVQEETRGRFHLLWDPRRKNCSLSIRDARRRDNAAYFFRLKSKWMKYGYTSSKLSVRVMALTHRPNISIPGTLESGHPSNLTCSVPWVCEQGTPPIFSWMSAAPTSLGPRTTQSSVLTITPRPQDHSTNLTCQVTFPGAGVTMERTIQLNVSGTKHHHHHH
In words: SPR, T-biAb immobilised via the Fc domain, soluble Siglec-6 (aa 28-235-His6) injected. (In general: In SPR one partner is held on a chip, and binding of the other changes the refractive index at the surface.)

In a further experiment the target is T2, CD3 on human T cells (human, UniProt P07766 23-207).
T2 construct: whole, on cells; CD3 is a complex; also called CD3+ cells
T2 sequence (P07766 23-207): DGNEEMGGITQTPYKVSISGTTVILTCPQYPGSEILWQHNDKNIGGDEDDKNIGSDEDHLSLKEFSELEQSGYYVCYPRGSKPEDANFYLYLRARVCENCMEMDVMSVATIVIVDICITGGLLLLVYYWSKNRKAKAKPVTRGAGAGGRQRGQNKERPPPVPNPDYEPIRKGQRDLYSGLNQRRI
In words: flow cytometry titration on primary human T cells, Alexa Fluor 647 anti-human Fc secondary antibody, percent biAb+ cells.

For experiment [1], the target named is T3, human Siglec-6 on the cell surface (U937, MEC1-002, MEC1-hS6, primary CLL cells) (human, UniProt O43699 27-453). Kind of experiment: cell-based or functional assay.
T3 sequence (O43699 27-453): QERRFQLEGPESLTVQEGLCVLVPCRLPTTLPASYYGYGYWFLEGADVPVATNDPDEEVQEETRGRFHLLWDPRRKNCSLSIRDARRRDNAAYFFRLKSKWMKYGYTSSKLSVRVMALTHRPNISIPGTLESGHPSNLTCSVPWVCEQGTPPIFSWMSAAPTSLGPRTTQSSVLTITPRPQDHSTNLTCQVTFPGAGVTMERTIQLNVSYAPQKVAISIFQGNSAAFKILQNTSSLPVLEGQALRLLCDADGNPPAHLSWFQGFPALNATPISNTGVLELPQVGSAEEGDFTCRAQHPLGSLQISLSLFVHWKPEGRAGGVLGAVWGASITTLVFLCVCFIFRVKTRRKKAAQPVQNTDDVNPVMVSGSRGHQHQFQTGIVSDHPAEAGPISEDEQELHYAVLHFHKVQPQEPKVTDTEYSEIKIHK
In another experiment the target is T4, Siglec-8 (Homo sapiens, UniProt Q9NYZ4).
T4 construct: Fc fusion protein; member of the siglec panel (group m8); also called human Siglec-8-Fc fusion protein
T4 sequence (Q9NYZ4 17-363 limits assumed): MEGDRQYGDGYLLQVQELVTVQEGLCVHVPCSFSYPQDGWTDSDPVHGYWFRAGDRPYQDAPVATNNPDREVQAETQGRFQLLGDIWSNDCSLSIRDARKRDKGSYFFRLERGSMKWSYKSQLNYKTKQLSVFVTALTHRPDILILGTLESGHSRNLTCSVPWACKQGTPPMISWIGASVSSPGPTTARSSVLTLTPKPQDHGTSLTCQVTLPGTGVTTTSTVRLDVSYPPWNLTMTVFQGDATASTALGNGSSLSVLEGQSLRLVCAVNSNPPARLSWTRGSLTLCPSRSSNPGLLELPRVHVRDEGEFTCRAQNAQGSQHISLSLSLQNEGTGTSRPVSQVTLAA
Kind of experiment: ELISA, siglec-Fc fusion protein coated directly, anti-human Fab detection, absorbance 405-570 nm. A general note: ELISA stands for enzyme-linked immunosorbent assay.

The next experiment addresses T5, Siglec-2 (CD22) (Homo sapiens, UniProt P20273).
T5 construct: Fc fusion protein; member of the siglec panel (group m8); also called human Siglec-2-Fc fusion protein
Described as above.

The target in the next experiment is human CD33 (Siglec-3) (human, UniProt P20138 18-259, limits assumed). The experiment is described as above.
Sequence of human CD33 (Siglec-3) (P20138 18-259 limits assumed): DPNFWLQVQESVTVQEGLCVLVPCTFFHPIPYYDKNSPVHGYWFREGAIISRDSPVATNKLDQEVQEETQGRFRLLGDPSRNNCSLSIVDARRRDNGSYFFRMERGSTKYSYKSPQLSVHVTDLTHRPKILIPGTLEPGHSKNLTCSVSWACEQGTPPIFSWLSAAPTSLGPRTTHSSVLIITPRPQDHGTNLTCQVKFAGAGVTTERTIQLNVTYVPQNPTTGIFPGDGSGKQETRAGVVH
The target of experiment [2] is T6, rhesus macaque (Macaca mulatta) Siglec-6 Fc fusion protein (human; Macaca mulatta (rhesus macaque), UniProt A0A1D5QH63 16-333).
T6 construct: range 16-333; it is not the assay construct; also called rhesus Siglec-6; macaque Siglec-6; not shown: human IgG1 Fc, aa 99-329
T6 sequence (A0A1D5QH63 entry or part of it): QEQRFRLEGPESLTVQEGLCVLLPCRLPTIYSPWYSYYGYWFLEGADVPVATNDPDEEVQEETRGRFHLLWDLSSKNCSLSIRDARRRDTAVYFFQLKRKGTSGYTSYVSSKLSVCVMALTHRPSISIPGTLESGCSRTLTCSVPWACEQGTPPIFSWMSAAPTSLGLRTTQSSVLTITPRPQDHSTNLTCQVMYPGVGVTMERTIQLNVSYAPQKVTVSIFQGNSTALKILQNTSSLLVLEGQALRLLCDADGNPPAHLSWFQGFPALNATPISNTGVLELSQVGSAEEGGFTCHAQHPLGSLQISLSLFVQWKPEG
In words: ELISA, siglec-Fc fusion protein coated directly (50 ng), anti-human F(ab')2-HRP detection, absorbance 405-570 nm.

For experiment [3], the target named is T7, Siglec-9 (Homo sapiens, UniProt Q9Y336).
T7 construct: Fc fusion protein; member of the siglec panel (group m8); also called human Siglec-9-Fc fusion protein
T7 sequence (Q9Y336 18-348 limits assumed): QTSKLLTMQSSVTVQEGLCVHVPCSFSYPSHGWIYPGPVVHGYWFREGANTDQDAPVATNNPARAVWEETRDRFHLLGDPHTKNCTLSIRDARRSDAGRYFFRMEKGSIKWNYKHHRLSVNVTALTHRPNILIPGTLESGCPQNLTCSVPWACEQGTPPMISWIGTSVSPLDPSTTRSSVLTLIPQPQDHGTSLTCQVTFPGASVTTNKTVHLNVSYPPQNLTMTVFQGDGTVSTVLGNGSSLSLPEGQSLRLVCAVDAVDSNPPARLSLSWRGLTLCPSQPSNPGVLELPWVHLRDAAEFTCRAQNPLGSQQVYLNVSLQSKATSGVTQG
The experiment is described as above.

Experiment [4] deals with T8, recombinant human Siglec-6 human IgG1-Fc fusion protein (human, UniProt O43699 27-347).
T8 construct: range 27-347; The methods describe the in-house construct as the Siglec-6 ectodomain at the C-terminus of the Fc (Fc-Siglec-6); The text uses hS6-Fc, Siglec-6-Fc and Fc-Siglec-6 for the SPR and ELISA antigen without telling the orientations apart; also called hS6-Fc; Fc-hS6; not shown: human IgG1 Fc, aa 99-329
T8 sequence (O43699 27-347 limits assumed): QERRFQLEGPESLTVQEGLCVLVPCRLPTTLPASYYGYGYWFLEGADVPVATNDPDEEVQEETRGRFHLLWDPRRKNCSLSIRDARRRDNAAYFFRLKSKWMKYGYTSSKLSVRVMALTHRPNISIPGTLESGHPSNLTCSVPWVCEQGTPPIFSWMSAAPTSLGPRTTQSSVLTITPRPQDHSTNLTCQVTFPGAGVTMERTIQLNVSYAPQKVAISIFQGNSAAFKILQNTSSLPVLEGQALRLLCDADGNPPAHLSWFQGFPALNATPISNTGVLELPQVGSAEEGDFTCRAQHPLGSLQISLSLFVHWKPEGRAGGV
In words: SPR, immobilized hS6-Fc, soluble Fab.

In experiment [5] the target is T8, recombinant human Siglec-6 human …. In words: SPR, Siglec-6-Fc captured, soluble Fab injected.
Protocol: (§1) Fab kinetics were determined by capturing Siglec-6-Fc (5-10 μg/mL) in HBS-EP+ buffer (Cytiva) and injecting titrated. […] Biacore evaluation software was used to calculate kₒₙ, koff, and Kd.
Experiment [6] has as its target T7, Siglec-9. In words: ELISA, siglec-Fc fusion protein coated directly, anti-human Fab detection, absorbance 405-570 nm.
In experiment [7] the target is T8, recombinant human Siglec-6 human …. In words: SPR, monovalent Fab on Siglec-6-Fc fusion protein.
Protocol: as §1
The target in experiment [8] is T3, human Siglec-6 on the cell surface …. Kind of experiment: cell-based or functional assay. The source holds these as a separate data set.
For experiment [9] the target is unchanged. Kind of experiment: flow cytometry titration on MEC1-hS6 cells, apparent Kd; scFv-Fc format, JML-1 clone. In general terms: In flow cytometry, cells or beads pass a laser one at a time.
Protocol: (§2) To determine whether T-biAb format affected the affinity to Siglec-6 or CD3 on the cell surface, T-biAbs were titrated and used to stain cells for flow cytometry (FIG. 17a).
(§3) Flow cytometry: Fabs were used to stain cells at a concentration of 2 μg/mL, unless otherwise noted. […] Samples were analyzed on either an Accuri C6 Plus or a LSRII flow cytometer (both from BD Biosciences).
Experiment [10] shares this target. In words: cell-based or functional assay. The source holds these as a separate data set.
Experiment [11] has the same target. In words: flow cytometry titration on MEC1-hS6 cells, apparent Kd; aDART-Fc format, RC-1 clone.
Protocol: as §2, §3
For experiment [12] the target is unchanged. In words: cell-based or functional assay. The source holds these as a separate data set.
Experiment [13] shares this target. In words: flow cytometry of whole PBMC with biotinylated JML-1 IgG1, normalised to an isotype control.
Protocol: as §3

Protocol for CD3 on human T cells: as §2, §3
Protocol for Siglec-6 VC28-235-His6: as §1

B1: V9/RC-1 sDART-Fc (bispecific antibody)
chain 1: DIQMTQSPSSLSASVGDRVTITCRASQDIRNYLNWYQQKPGKAPKLLIYYTSRLESGVPSRFSGSGSGTDYTLTISSLQPEDFATYYCQQGNTLPWTFGQGTKVEIKGGGSGGGGEVQLVESGGGLVQPGRSLRLSCAASGFTFSSYGMHWVRQAPGKGLEWVAVISYDGSNKYYADSVKGRFTISRDNSKNTLYLQMNSLRAEDTAVYYCANYGMDVWGKGTTVTVSSGCPPCPAPEAAGGPSVFLFPPKPKDTLMISRTPEVTCVVVDVSHEDPEVKFNWYVDGVEVHNAKTKPREEQYNSTYRVVSVLTVLHQDWLNGKEYKCKVSNKALGAPIEKTISKAKGQPREPQVCTLPPSRDELTKNQVSLSCAVKGFYPSDIAVEWESNGQPENNYKTTPPVLDSDGSFFLVSKLTVDKSRWQQGNVFSCSVMHEALHNRFTQKSLSLSPGA
chain 2: not shown
notes: Two-chain symmetric DART-Fc
With B1, in the experiment with Siglec-6 VC28-235-His6, the Kd came out at 0.07 nM, the koff was 0.0003 s⁻¹ and the kon amounted to 4.14e+06 M⁻¹ s⁻¹. Also, the “EC50 (read off the curve)” value with CD3 on human T cells is about 0.3 nM. The “EC50, lysis of MEC1-hS6 cells by human T cells (E:T 1:1, luciferase)” value in [1] came to 0.00069 nM.

B2: RC-1 Fab (Fab, V domains shown)
VH: EVQLVESGGGLVQPGRSLRLSCAASGFTFSSYGMHWVRQAPGKGLEWVAVISYDGSNKYYADSVKGRFTISRDNSKNTLYLQMNSLRAEDTAVYYCANYGMDVWGKGTTVTVSS
VL: not shown
notes: Human Fab (kappa) from the post-alloHSCT phage library, expressed in E. coli
For B2, the binding result (in the experiment with Siglec-8; with Siglec-2 (CD22); with human CD33 (Siglec-3); in experiment [2]; in the experiment with Siglec-9 [3]) was “no binding (tested: 75 ng Fab per well)” in each case. Further, the Kd in experiment [4] stood at 0.49 nM. In addition, the T1/2 in experiment [5] is 37 min.

B3: RC-2 Fab (Fab, V domains shown)
VH: EVQLLESGGGVVQPGRSLRLSCAASGFTFSSYGMHWVRQAPGKGLEWVAVISYDGSNKHYADSVKGRFTISRDNSKNTLYLQMNSLRAEDTAVYYCARGGQTIDIWGQGTMVTVSS
VL: not shown
notes: Human Fab (kappa), expressed in E. coli
For B3, in experiment [4], the Kd came to 2.76 nM. The T1/2 in experiment [5] stood at 27 min.

B4: ARN-1 Fab (Fab, V domains shown)
VH: EVQLVQSGGGVVQPGRSLTLSCAAFGFTFSTYTMHWVRQAPGKGLEWVAVISYDEGFKYYADSVKGRFTISRDISKNTLYLQMNSLRTEDTAVYYCAREASAFDIWGQGTMVTVSS
VL: SYVLTQPPLVSVSPGQTARITCSGENWGQKYASWYQQKPGQSPMLIIYEDTKRPSEIPERFSGSNSGSTVTLTISGTQPMDEADYYCQAWDDSTGGVFGTGTKVTVL
notes: Human Fab from a naive human Fab library
For B4, the binding result in the experiment with Siglec-8, with Siglec-9 [6], with Siglec-2 (CD22) and with human CD33 (Siglec-3) was “no binding (tested: 75 ng Fab per well)” each time. In addition, in [7], the Kd was 2.63 nM. The koff in experiment [7] was found to be 0.000268 s⁻¹. Further, the kon in experiment [7] amounted to 100000 M⁻¹ s⁻¹.

B5: JML-1/V9 scFv-Fc (bispecific antibody)
chain 1: not shown
chain 2: EVQLVESGGGLVQPGGSLRLSCAASGYSFTGYTMNWVRQAPGKGLEWVALINPYKGVSTYNQKFKDRFTISVDKSKNTAYLQMNSLRAEDTAVYYCARSGYYGDSDWYFDVWGQGTLVTVSSGGGGSGGGGSGGGGSDIQMTQSPSSLSASVGDRVTITCRASQDIRNYLNWYQQKPGKAPKLLIYYTSRLESGVPSRFSGSGSGTDYTLTISSLQPEDFATYYCQQGNTLPWTFGQGTKVEIKEPKSSDKTHTCPPCPAPELLGGPSVFLFPPKPKDTLMISRTPEVTCVVVDVSHEDPEVKFNWYVDGVEVHNAKTKPREEQYASTYRVVSVLTVLHQDWLNGKEYKCKVSNKALPAPIEKTISKAKGQPREPQVCTLPPSRDELTKNQVSLSCAVKGFYPSDIAVEWESNGQPENNYKTTPPVLDSDGSFFLVSKLTVDKSRWQQGNVFSCSVMHEALHNHYTQKSLSLSPGA
notes: Knobs-into-holes heterodimer of the JML-1 scFv-Fc knob arm and the shared anti-CD3 V9 scFv-Fc hole arm; Both arms carry N297A; also called JML-1 clone T-biAb
As to B5, the “EC50 (read off the curve), NFAT reporter activation with MEC1-002 cells” value in experiment [8] was about 0.08 nM. Moreover, the Kd in [9] is 0.61 nM. The “EC50 (read off the curve)” value in the experiment with CD3 on human T cells is about 0.07 nM. In addition, in experiment [10], the “specific lysis of MEC1-hS6 by healthy donor T cells, EC50” value was determined as 0.0024 nM and the “specific lysis of primary CLL cells by autologous T cells, day 11, median” value was found to be 8.8%.

B6: RC-1/V9 aDART-Fc (bispecific antibody)
chain 1: not shown
chain 2: DIQMTQSPSSLSASVGDRVTITCRASQDIRNYLNWYQQKPGKAPKLLIYYTSRLESGVPSRFSGSGSGTDYTLTISSLQPEDFATYYCQQGNTLPWTFGQGTKVEIKGGGGSGGGGEVQLVESGGGLVQPGRSLRLSCAASGFTFSSYGMHWVRQAPGKGLEWVAVISYDGSNKYYADSVKGRFTISRDNSKNTLYLQMNSLRAEDTAVYYCANYGMDVWGKGTTVTVSSASTKGKVAACKEKVAALKEKVAALKEKVAALKE
chain 3: DKTHTCPPCPAPEAAGGPSVFLFPPKPKDTLMISRTPEVTCVVVDVSHEDPEVKFNWYVDGVEVHNAKTKPREEQYNSTYRVVSVLTVLHQDWLNGKEYKCKVSNKALGAPIEKTISKAKGQPREPQVCTLPPSRDELTKNQVSLSCAVKGFYPSDIAVEWESNGQPENNYKTTPPVLDSDGSFFLVSKLTVDKSRWQQGNVFSCSVMHEALHNRFTQKSLSLSPGA
notes: Three-chain asymmetric DART-Fc; Chain 1 is RC-1vk-G3SG4-V9vh-ASTK-E-coil-G3-Fc knobs, chain 2 is V9vk-G4SG4-RC-1vh-ASTK-K-coil, and chain 3 is Fc holes; also called Siglec-6xCD3 T-biAb in aDART-Fc format
As to B6, in the experiment with Siglec-6 VC28-235-His6, the Kd was 0.15 nM, the koff is 0.00045 s⁻¹ and the kon was 2.96e+06 M⁻¹ s⁻¹. Besides, the “EC50 (read off the curve)” value with CD3 on human T cells is about 0.1 nM. For the same molecule, in experiment [11], the Kd stood at 0.79 nM. For the same molecule, the “EC50 (read off the curve), NFAT reporter activation with MEC1-002 cells” value in experiment [12] was about 0.04 nM. In addition, in experiment [10], the “directed T cell lysis of CLL cell lines, EC50” value was 0.00012 nM; the “fold increase in lysis potency compared to RC-1/V9 scFv-Fc” value amounted to 25 fold; the “fold lower lysis EC50 than CD19/V9 scFv-Fc (MEC1-002, E:T 1:30, 48 h)” value was about 3 fold; the “fold lower lysis EC50 than RC-1/V9 scFv-Fc (MEC1-002, E:T 1:30, 48 h)” value was over 10 fold. Further, in [10], the “specific lysis of MEC1-002 cells at E:T 1:30, EC50” value stood at 0.0011 nM and the “specific lysis of primary CLL cells by autologous T cells, day 11, median” value is 24.9%.

B7: JML-1 biotinylated IgG1 (antibody, V domains shown)
VH: KVQLLESGGGLVQPGRSLRLSCAASGFTFDDYGMHWVRQAPGKGLEWVSGISWNSGSIGYADSVKGRFTISRDNSKNTLYLQMNSLRAEDTAVYYCARGGQTIDIWGQGTMVTVSS
VL: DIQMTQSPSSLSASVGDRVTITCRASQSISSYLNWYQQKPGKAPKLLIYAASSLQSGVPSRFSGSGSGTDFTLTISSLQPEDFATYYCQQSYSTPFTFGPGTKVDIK
modifications: Biotinylated IgG1; the biotin sites are not stated and are not carried in the letters.
Take B7: in experiment [13], the binding result is on record as “binds”.
